To fix the notation:
T1: Human nectin-4 ECD-6His (TNT-175) (human, UniProt Q96NY8 32-349)
T1 construct: the entry holds the extracellular domain with the C-terminal 6His tag
T1 sequence: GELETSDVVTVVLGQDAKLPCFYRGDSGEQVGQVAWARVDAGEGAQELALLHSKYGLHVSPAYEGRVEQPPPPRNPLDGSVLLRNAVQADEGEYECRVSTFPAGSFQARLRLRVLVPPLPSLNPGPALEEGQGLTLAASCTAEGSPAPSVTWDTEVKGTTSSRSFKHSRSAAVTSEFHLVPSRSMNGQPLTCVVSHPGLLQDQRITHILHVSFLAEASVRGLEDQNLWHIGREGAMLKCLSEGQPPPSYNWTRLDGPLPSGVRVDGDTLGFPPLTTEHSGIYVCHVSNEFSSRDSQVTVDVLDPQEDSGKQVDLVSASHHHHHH

T2: Mouse nectin-4 ECD-6His (TNT-250) (mouse, UniProt Q8R007 31-347)
T2 construct: entry includes the 6His tag; also called mouse nectin-4-LCD
T2 sequence: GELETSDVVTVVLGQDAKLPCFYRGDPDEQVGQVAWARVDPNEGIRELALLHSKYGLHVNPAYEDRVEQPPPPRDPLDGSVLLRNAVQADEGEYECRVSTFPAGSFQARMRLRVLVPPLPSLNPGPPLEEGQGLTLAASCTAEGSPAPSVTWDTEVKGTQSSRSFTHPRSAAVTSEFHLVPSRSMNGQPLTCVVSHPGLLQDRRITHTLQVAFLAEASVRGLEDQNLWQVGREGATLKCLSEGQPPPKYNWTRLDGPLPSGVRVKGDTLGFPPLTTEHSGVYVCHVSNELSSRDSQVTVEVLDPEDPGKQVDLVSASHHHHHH

T3: Human nectin-4-IgV-6His (TNT-252) (human, UniProt Q96NY8 32-147)
T3 construct: entry includes the 6His tag
T3 sequence: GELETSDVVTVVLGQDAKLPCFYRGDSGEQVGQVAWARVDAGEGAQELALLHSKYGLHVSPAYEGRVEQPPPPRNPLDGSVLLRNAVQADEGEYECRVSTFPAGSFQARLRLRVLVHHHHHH

T4: Cyno nectin-4 ECD-6His (TNT-255) (cynomolgus, UniProt Q96NY8 32-349 (human entry))
T4 construct: entry includes the 6His tag
T4 chain: T1 sequence with V39A, I230V

B1: TNT-332 (antibody, V domains shown)
VH: QVQLVQSGAEAKKPGASVRVSCKTSGYTFTNYYIHWVRQAPGQGLEWMGIINPTLDSTSYAQKFQDRVTMTRDTSTNTDYMDLSSLRFEDTAVYYCARSAGFDAFDIWGQGTMVTVSS
VL: DIQLTQSPSFLSASVGDKVTITCRASQGINSYLAWYQQKPGKAPKLLIYSASTLQGGVPSRFSGSGSGTEFTLTISNLQPADFATYCCQQLNSYPFTFGPGTKVDIKR
notes: human IgG1
B2: TNT-331 (antibody, V domains shown)
VH: QVHLQESGPGLVKPSETLSLTCTVSGGSIRSYYWSWIRQPAGKGLEWIGRIYTSGSTNYNPSLKSRVTMSVDTSKNRLSLKLSSVTAADTAVYYCAKENWGPSFDYWGQGTLVTVSS
VL: QSVLTQPPSVSAAPGQKVTISCSGSSSNIGNNYVSWYQQLPGTAPKLLIYDNNKRPSGIPDRFSGSKSGTSATLGITGLQTGDEADYYCGTWDTSLSSGWLFGGGTKLTVLG
notes: human IgG1
B3: TNT-333 (antibody, V domains shown)
VH: QVQLQESGPGLVKPSETLSLTCTISGGSISSYYWSWIRQPPGKGLEWIGYIFYIGNTNYYPSLKSRVTISVDASKNQFSLKLSSVTAADTAVYYCARSYPYWYFDLWGRGTLVTVSS
VL: B2 VL with Y50S, T94S, S98A, W100V, L101V
notes: human IgG1
B4: TNT-337 (antibody, V domains shown)
VH: EVQLVESGGGLVQPGGSLRLSCAASGFTFSNYDMSWVRQAPGKGLEWVATISSGGSYTYYVDSVKGRFTISRDNAKNSLYLQMNSLRAEDTAVYYCARQELGSYYAMDYWGQGTTVTVSS
VL: DIVMTQTPLSLPVTPGEPASISCRSSQSIVHSNANTYLEWYLQKPGQSPQLLIYKVSNRFSGVPDRFSGSGSGTDFTLKISRVEAEDVGVYYCFQGSHVPYTFGGGTKVEIKR
notes: human IgG1
B5: TNT-335 (antibody, V domains shown)
VH: QVQLQESGPGLVKPSETLSLTCTVSGGSISSYYWSWIRQPPGKGLEWIGYIHYSGISNYNPSLKSRVAISLDTSNNHFSLKLTSLTAADTAVYFCARGSYWFDPWGQGTLVTVSS
VL: QSVLTQPPSASGTPGQRVTISCSGSSSNIGSDYIYWYQQLPGTAPKLLIYSNHQRPSGVPDRFSGSKSGTSASLAISGLRSEDEADYYCAAWEDSLSGPIFGGGTKLTVLG
notes: human IgG1
B6: TNT-334 (antibody, V domains shown)
VH: EVQLVESGGGLVQPGGSLRLSCAASGFTFSRYWMHWVRQAPGKGLVWVSRINSDGSSSNYADSVKGRFTFSRDNAKNTLYLQMNSLRAEDTAVYFCVRDNWYFDYWGQGTLVTVSS
VL: EIVMTQSPATLPVSPGERATLSCRASQSVSINLAWYQQKPGQAPRLLIYGVSTRATGIPARFSGSGSGTEFTLTISGLQSEDFAVYYCQQYNNWPRTFGQGTKVEIKR
notes: human IgG1
B7: TNT-336 (antibody, V domains shown)
VH: KVQLVESGGGLVQPGGSLRLSCEASGFTFSNYWMHWVRQVPGEGLVWVSRLNNGGTSTRYADSVKSRFTISRDNAKNTLYLQMNSLRAEDTAVYYCVRDWYFDLWGRGTLVTVSS
VL: QLVLTQSPSASASLGASVKLTCTLSSGHSFYAIAWHQQQPEKGPRYLMQVNSNGSHNKGDGIPDRFSGSSSGAERYLTISSLQSEDEADYYCQSWDTDIWVFGGGTKLTVLG
notes: human IgG1

The values below come from patent US20240382610A1 (TALLAC THERAPEUTICS, published 2024).

Substitutions are numbered along the chain they refer to.

For one assay, the target named is T1, Human nectin-4 ECD-6His (TNT-175). Nature of the assay: SPR Biacore 8K, mAb on protein A. The method, then: (§1) The running buffer was 10 mM HEPES, pH 7.4, 150 mM NaCl, 3 mM EDTA, 0.05% (v/v) Surfactant P20 (HBS-EP+). […] The nectin-4 analytes were injected in either single-cycle kinetics or multi-cycle kinetics mode at nominal starting concentrations of 300 nM or 900 nM with 3-fold serial dilutions. Association times were monitored for 120 s, and dissociation times were monitored 1800 s at 30 μL/min flow rate. The surfaces were regenerated with 10 mM glycine at pH1.7 or 75 mM phosphoric acid at pH1.6 for two pulses of 15 s at 30 μL/min flow rate.
(§2) The data were processed and analyzed with Biacore 8K Evaluation Software Version 3.0.12.15655 (Cytiva, Global Life Sciences Solutions USA LLC, Marlborough, MA). […] The responses from the nearest buffer blank injection were then subtracted from the reference subtracted data (2-1) to yield double-referenced data. These double-reference data were fit to a simple 1:1 Langmuir binding model with mass transport to determine the apparent association (ka) and dissociation rate constants (kd). The apparent equilibrium dissociation constant or affinity constant was then calculated based on their ratio as (KD=kd/ka).
For orientation: Surface plasmon resonance follows binding to a sensor surface in real time, without labels.
By Kd is commonly meant the free concentration of one partner at which half of the binding sites on the other are occupied at equilibrium, for simple one-to-one binding. Higher therefore signals weaker binding. With B1, the Kd was 0.0076 µM.

Regarding B2, the Kd is 0.0874 µM.

B3 showed a Kd of 0.00618 µM.

With B4, the Kd is 0.217 µM. This Kd lies about 35-fold higher than the previous one.

As for B5, the Kd amounted to 0.00183 µM.

For the molecule B6, the Kd was 0.0715 µM.

Regarding B7, binding was characterised by a dissociation constant (Kd) of 0.111 µM.

The target in the next assay is T2, Mouse nectin-4 ECD-6His (TNT-250). Kind of assay: SPR Biacore 8K, mAb on protein A. The method, then: as §1, §2
For the molecule B1, the binding result is given as “no binding (tested: up to 300 or 900 nM analyte)”.

With B2, the binding result was “no binding (tested: up to 300 or 900 nM analyte)”.

As to B3, the binding result is reported as “no binding (tested: up to 300 or 900 nM analyte)”.

In turn, B4 gave a Kd of 0.318 µM.

In the case of B5, the binding result is on record as “no binding (tested: up to 300 or 900 nM analyte)”.

On to B6, for which the binding result was “no binding (tested: up to 300 or 900 nM analyte)”.

On to B7, for which the binding result is listed as “no binding (tested: up to 300 or 900 nM analyte)”.

The next assay addresses T3, Human nectin-4-IgV-6His (TNT-252). Nature of the assay: SPR Biacore 8K, mAb on protein A. The method, then: as §1, §2
Regarding B1, the binding result is on record as “no binding (tested: up to 300 or 900 nM analyte)”.

As to B2, the binding result is reported as “no binding (tested: up to 300 or 900 nM analyte)”.

For the molecule B3, the binding result is given as “no binding (tested: up to 300 or 900 nM analyte)”.

With B4, the Kd was 0.195 µM.

Molecule B5 yielded a Kd of 0.000985 µM.

In turn, B6 had a Kd of 0.0463 µM.

In the case of B7, the Kd stood at 0.104 µM. This Kd is about 2.2-fold higher than that of the molecule before.

The target of the next assay is T4, Cyno nectin-4 ECD-6His (TNT-255). Nature of the assay: SPR Biacore 8K, mAb on protein A. The method, then:
as §1, §2
For B1, binding was characterised by a dissociation constant (Kd) of 0.0072 µM. In other words, the single-digit nanomolar range.

The molecule B2 returned a dissociation constant (Kd) of 0.0328 µM.

In the case of B3, the Kd was found to be 0.00743 µM. Compared with the last molecule, the Kd is about 4.4-fold lower.

The molecule B4 gave a Kd of 0.286 µM.

Turning to B5, the Kd was determined as 0.00128 µM. This Kd is about 220-fold lower than that of the molecule before.

Turning to B6, binding was characterised by a dissociation constant (Kd) of 0.0953 µM.

With B7, the binding result is “no binding (tested: up to 300 or 900 nM analyte)”.
